Results as given in patent EP4806922A2 (Lyvgen Biopharma Holdings Limited, dated 2026).
Where two headings read alike, the source gives them in different places.

Assays:
[1] = target: T1, human PD-L1 protein (human, UniProt Q9NZQ7 19-238); assay: FCM or ELISA, graded summary
[2] = target: T2, human CD3D/E protein (human, UniProt P04234 22-105; P07766 23-126); assay: ELISA or FCM, graded summary
T2 construct: also called human CD3 expressing Jurkat cells

[3] = target: T3, human CD137 protein (human, UniProt Q07011 24-186); assay: ELISA or FCM, graded summary
T3 construct: also called human CD137 expressing CHO cells

[4] = target: T2, human CD3D/E protein; assay: FCM or ELISA, graded summary
[5] = target: T1, human PD-L1 protein; assay: FCM or ELISA, graded summary; remark: listed apart in the source
[6] = target: T4, human BCMA protein (human, UniProt Q02223 1-54); assay: FCM or ELISA, graded summary
T4 construct: also called human BCMA expressing NCI-H929 cells; human BCMA overexpressing HEK293 cells
T4 sequence (looked up): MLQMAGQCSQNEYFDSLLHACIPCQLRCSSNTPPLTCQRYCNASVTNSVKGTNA

T1 sequence (Q9NZQ7 19-238 limits assumed): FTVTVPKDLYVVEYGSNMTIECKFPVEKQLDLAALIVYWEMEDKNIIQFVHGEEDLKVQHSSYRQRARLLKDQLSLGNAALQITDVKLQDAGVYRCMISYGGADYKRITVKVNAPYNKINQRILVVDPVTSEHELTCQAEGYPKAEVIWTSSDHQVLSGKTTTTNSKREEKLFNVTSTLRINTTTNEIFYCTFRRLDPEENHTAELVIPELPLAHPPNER
T2 sequence (P04234 22-105, chain 1 of 2): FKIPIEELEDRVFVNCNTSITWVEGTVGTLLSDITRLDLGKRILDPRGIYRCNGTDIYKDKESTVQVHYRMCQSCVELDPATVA
T2 sequence (P07766 23-126, chain 2 of 2): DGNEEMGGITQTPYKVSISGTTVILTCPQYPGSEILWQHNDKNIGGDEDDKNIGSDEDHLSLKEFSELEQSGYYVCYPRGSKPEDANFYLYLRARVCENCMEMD
T3 sequence (Q07011 24-186 limits assumed): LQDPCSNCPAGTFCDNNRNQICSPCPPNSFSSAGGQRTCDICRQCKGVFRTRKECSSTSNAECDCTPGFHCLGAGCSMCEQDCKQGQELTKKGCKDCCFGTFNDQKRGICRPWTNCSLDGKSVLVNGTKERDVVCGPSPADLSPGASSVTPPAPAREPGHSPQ

B1: Ly076 (anti-PD-L1 parent) (antibody, V domains shown)
VH: QVQLVQSGAEVKKPGASVKVSCKASGYTFTDFWMSWVRQAPGQGLEWMGQIYPNTGTTHSNEKFKGRVTMTRDTSTSTVYMELSSLRSEDTAVYYCARSYHISTTPNWFAYWGQGTLVTVSS
VL: DIQMTQSPSSLSASVGDRVTITCKASQNVYKKLEWYQQKPGKVPKVLIYHTNILQTGVPSRFSGSGSGTDYTLTISSLQPEDVATYYCYQWNSGPTFGGGTKVEIK
notes: Parent monoclonal antibody used as control; also called anti-PD-L1 mAb Ly076
[1]
  binding result: binds

B2: Ly305 (anti-CD3 parent) (antibody, V domains shown)
VH: EVQLVESGGGLVQPGGSLRLSCAASGFTFSTYAMNWVRQAPGKGLEWVGRIRSKYNNYATYYADSVKGRFTISRDDSKNSLYLQMNSLKTEDTAVYYCVRHGNFGNSYVSWFAYWGQGTLVTVSS
VL: QAVVTQEPSLTVSPGGTVTLTCRSSTGAVTTSNYANWVQQKPGQAPRGLIGGTNKRAPWTPARFSGSLLGGKAALTITGAQAEDEADYYCALWYSNLWVFGGGTKLTVL
notes: Parent monoclonal antibody used as control; also called anti-CD3 mAb Ly305; parental anti-CD3 mAb
[2]
  binding result: binds

B3: Ly1630 (anti-CD137 parent) (antibody, V domains shown)
VH: QVQLVQSGAEVKKPGASVKVSCKASGYTFAGFEMHWVRQAPGQGLEWMGAIDPKTGGTDYNQKFKDRVTMTRDTSISTAYMELSRLRSDDTAVYYCARDLGYFDVWGQGTLVTVSS
VL: DIQMTQSPSSLSASVGDRVTITCRASQDIRSNLNWYQQKPGGAVKLLIYYTSRLHSGVPSRFSGSGSGTDYTLTISSLQPEDFATYFCQQSEKLPRTFGGGTKVEIR
notes: Parent monoclonal antibody used as control; also called anti-CD137 mAb Ly1630
[3]
  binding result: binds

B4: Ly2959 (BCMA/CD3/PD-L1) (other)
heavy 1: QVQLVQSGAEVKKPGASVKVSCKASGYTFTNHIIHWVRQAPGQGLEWMGYINPYPGYHAYNEKFQGRATMTSDTSTSTVYMELSSLRSEDTAVYYCARDGYYRDTDVLDYWGQGTLVTVSSASTKGPSVFPLAPSSKSTSGGTAALGCLVKDYFPEPVTVSWNSGALTSGVHTFPAVLQSSGLYSLSSVVTVPSSSLGTQTYICNVNHKPSNTKVDKKVEPKSCGGGGSGGGGSGGGGSGGGGSEVQLVESGGGLVQPGGSLRLSCAASGFTFSTYAMNWVRQAPGKGLEWVGRIRSKYNNYATYYADSVKGRFTISRDDSKNSLYLQMNSLKTEDTAVYYCVRHGNFGNSYVSWFAYWGQGTLVTVSSGGGGSDKTHTCPPCPAPELLGPSVFLFPPKPKDTLMISRTPEVTCVVVDVSHEDPEVKFNWYVDGVEVHNAKTKPREEQYNSTYRVVSVLTVLHQDWLNGKEYKCKVSNKALGAPIEKTISKAKGQPREPQVYTLPPSREEMTKNQVSLWCLVKGFYPSDIAVEWESNGQPENNYKTTPPVLDSDGSFFLYSKLTVDKSRWQQGNVFSCSVMHEALHNHYTQKSLSLSPGKGGGGSGGGGSGGGGSGGGGSQVQLVQSGAEVKKPGASVKVSCKASGYTFTDFWMSWVRQAPGQGLEWMGQIYPNTGTTHSNEKFKGRVTMTRDTSTSTVYMELSSLRSEDTAVYYCARSYHISTTPNWFAYWGQGTLVTVSS
heavy 2: QVQLVQSGAEVKKPGASVKVSCKASGYTFTNHIIHWVRQAPGQGLEWMGYINPYPGYHAYNEKFQGRATMTSDTSTSTVYMELSSLRSEDTAVYYCARDGYYRDTDVLDYWGQGTLVTVSSASTKGPSVFPLAPSSKSTSGGTAALGCLVKDYFPEPVTVSWNSGALTSGVHTFPAVLQSSGLYSLSSVVTVPSSSLGTQTYICNVNHKPSNTKVDKKVEPKSCGGGGSGGGGSGGGGSGGGGSQAVVTQEPSLTVSPGGTVTLTCRSSTGAVTTSNYANWVQQKPGQAPRGLIGGTNKRAPWTPARFSGSLLGGKAALTITGAQAEDEADYYCALWYSNLWVFGGGTKLTVLGGGGSDKTHTCPPCPAPELLGPSVFLFPPKPKDTLMISRTPEVTCVVVDVSHEDPEVKFNWYVDGVEVHNAKTKPREEQYNSTYRVVSVLTVLHQDWLNGKEYKCKVSNKALGAPIEKTISKAKGQPREPQVYTLPPSREEMTKNQVSLSCAVKGFYPSDIAVEWESNGQPENNYKTTPPVLDSDGSFFLVSKLTVDKSRWQQGNVFSCSVMHEALHNRFTQKSLSLSPGKGGGGSGGGGSGGGGSGGGGSDIQMTQSPSSLSASVGDRVTITCKASQNVYKKLEWYQQKPGKVPKVLIYHTNILQTGVPSRFSGSGSGTDYTLTISSLQPEDVATYYCYQWNSGPTFGGGTKVEIK
light: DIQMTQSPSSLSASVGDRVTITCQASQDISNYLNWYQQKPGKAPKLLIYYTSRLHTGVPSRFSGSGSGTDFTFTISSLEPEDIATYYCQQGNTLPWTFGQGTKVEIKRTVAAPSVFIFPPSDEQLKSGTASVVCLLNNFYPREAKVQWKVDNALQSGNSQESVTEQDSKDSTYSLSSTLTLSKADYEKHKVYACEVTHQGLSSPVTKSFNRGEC
notes: Multi-specific (tri-specific) antibody with three different chains HC1, HC2, LC1; also called BCMA(a) /CD3 /PD-L1
[4]
  binding result: binds
[5]
  binding result: binds
[6]
  binding result: binds
